Assay results taken from US20110159022A1, “Immunogenic Peptides Derived from the Midkine Protein, as an Anticancer Vaccine” (priority 2008, published 2011).
Positions count from the first letter of the chain named.

Key:
HLA-DR1 (DRB1*0101) = HLA-DR1 (DRB1*0101) (Homo sapiens, UniProt P01903+P01911, A100R/D57E/F55L/F60I/F76Y/I96L/L162R/M171V/P40L/Q125E/R42F/V115G/Y59C); assay type: binding; details: ratio of IC50 of competitor peptide to IC50 of reference peptide; mean of at least two independent experiments; less than 100 = active
HLA-DR3 (DRB1*0301) = HLA-DR3 (DRB1*0301) (Homo sapiens, UniProt P01903+P01911, A100K/A102G/A103R/A169T/F55Y/I96L/K41T/L162R/M171V/P40S/Q125H/Q178H/Q39Y/R42S/S66N/T106N/T262R/W38E/Y61H); assay: HLA II/peptide competition binding assay, DR3; details: ratio of IC50 of competitor peptide to IC50 of reference peptide; mean of at least two independent experiments; less than 100 = active
HLA-DR4 (DRB1*0401) = HLA-DR4 (DRB1*0401) (Homo sapiens, UniProt P01903+P01911, A100K/A169T/F76Y/I96L/K127E/L162R/M171V/N62H/P40V/Q125Y/R42H/S133A/S149N/S66Y/V115G/V209L/W38E); assay: HLA II/peptide competition binding assay, DR4; details: ratio of IC50 of competitor peptide to IC50 of reference peptide; mean of at least two independent experiments; less than 100 = active
HLA-DR7 (DRB1*0701) = HLA-DR7 (DRB1*0701) (Homo sapiens, UniProt P01903+P01911, A100R/A102G/A103Q/D57E/D86V/E43K/F76Y/K127E/L162R/M171V/P40G/Q125H/Q99D/R33Q/R42Y/R54Q/S133A/S66F/T210M/V115G/Y107V/Y59L/Y89S); assay: HLA II/peptide competition binding assay, DR7; details: ratio of IC50 of competitor peptide to IC50 of reference peptide; mean of at least two independent experiments; less than 100 = active
HLA-DR11 (DRB1*1101) = HLA-DR11 (DRB1*1101) (Homo sapiens, UniProt P01903+P01911, A100R/A169T/A87E/I96F/K41T/L162R/M171V/P40S/Q125H/Q178H/Q39Y/Q99D/R42S/S66Y/T262R/V115G/W38E); assay type: binding; details: ratio of IC50 of competitor peptide to IC50 of reference peptide; mean of at least two independent experiments; less than 100 = active
HLA-DR15 (DRB1*1501) = HLA-DR15 (DRB1*1501) (Homo sapiens, UniProt P01903+P01911); assay: HLA II/peptide competition binding assay, DR15; details: ratio of IC50 of competitor peptide to IC50 of reference peptide; mean of at least two independent experiments; less than 100 = active
HLA-DRB3 (DRB3*0101) = HLA-DRB3 (DRB3*0101) (Homo sapiens, UniProt P01903+P79483); assay: HLA II/peptide competition binding assay, DRB3; details: ratio of IC50 of competitor peptide to IC50 of reference peptide; mean of at least two independent experiments; less than 100 = active
HLA-DRB4 (DRB4*0101) = HLA-DRB4 (DRB4*0101) (Homo sapiens, UniProt P01903+P13762, G164S); assay: HLA II/peptide competition binding assay, DRB4; details: ratio of IC50 of competitor peptide to IC50 of reference peptide; mean of at least two independent experiments; less than 100 = active
HLA-DP401 (DPB1*0401) = target: T1, HLA-DP401 (DPB1*0401) (Homo sapiens, UniProt P04440+P20036); assay type: binding; details: ratio of IC50 of competitor peptide to IC50 of reference peptide; mean of at least two independent experiments; less than 100 = active
T1 sequence (P04440 30-258): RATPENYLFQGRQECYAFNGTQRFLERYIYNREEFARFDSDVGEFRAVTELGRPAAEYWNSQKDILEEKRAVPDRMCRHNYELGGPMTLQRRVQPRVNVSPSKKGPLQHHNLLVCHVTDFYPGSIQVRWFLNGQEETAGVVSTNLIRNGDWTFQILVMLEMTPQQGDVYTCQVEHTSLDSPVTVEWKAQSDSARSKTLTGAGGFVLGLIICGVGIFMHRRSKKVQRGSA
T1 sequence (P20036 29-260): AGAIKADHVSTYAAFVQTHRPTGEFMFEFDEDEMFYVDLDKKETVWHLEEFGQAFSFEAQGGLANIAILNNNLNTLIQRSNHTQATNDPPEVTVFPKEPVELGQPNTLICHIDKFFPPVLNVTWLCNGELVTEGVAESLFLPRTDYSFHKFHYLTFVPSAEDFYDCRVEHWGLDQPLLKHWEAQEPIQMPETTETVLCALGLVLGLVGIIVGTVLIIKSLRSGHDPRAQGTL

HLA-DP402 (DPB1*0402) = target: T2, HLA-DP402 (DPB1*0402) (Homo sapiens, UniProt P04440+P20036, A65V/A84D/A85E/L207M); assay type: binding; details: ratio of IC50 of competitor peptide to IC50 of reference peptide; mean of at least two independent experiments; less than 100 = active
T2 sequence (P04440 30-258 A65V/A84D/A85E): T1 sequence (P04440 30-258) with A36V, A55D, A56E
T2 sequence (P20036 29-260): T1 sequence (P20036 29-260)

[1] = tested on: 12 predominant HLA II molecules; assay: HLA II/peptide binding assays, count over the panel; parameters: species or system human; details: relative activity of less than 100 characterizes the active peptides
From the text: The assays for binding to HLA II molecules are competition binding assays with immunoenzymatic visualization, as described in U.S. Pat. No. 6,649,166 and PCT international application WO 03/040299, respectively, for the HLA-DR and HLA-DP4 molecules. The implementation of these assays for measuring the binding activity of peptides derived from various antigens is illustrated in U.S. Pat. No. 6,649,166 and PCT international applications WO 02/090382, WO 03/040299 and WO 2004/014936.
The sensitivity of each test is reflected by the IC50 values observed with the nonbiotinylated peptides which correspond to the tracers. […] The results are expressed in the form of relative activity (ratio of the IC50 of the competitor peptide to that of the reference peptide (nonbiotinylated peptide which corresponds to the tracer)). A relative activity of less than 100 characterizes the active peptides.

HLA-DR13 (DRB1*1301) = HLA-DR13 (DRB1*1301) (Homo sapiens, UniProt P01903+P01911, A100E/A169T/K41T/L162R/M171V/P40S/Q125H/Q178H/Q39Y/Q99D/R42S/S66N/T262R/W38E/Y61H); assay: HLA II/peptide competition binding assay, DR13; details: ratio of IC50 of competitor peptide to IC50 of reference peptide; mean of at least two independent experiments; less than 100 = active
HLA-DRB5 (DRB5*0101) = HLA-DRB5 (DRB5*0101) (Homo sapiens, UniProt P01903+Q30154); assay: HLA II/peptide competition binding assay, DRB5; details: ratio of IC50 of competitor peptide to IC50 of reference peptide; mean of at least two independent experiments; less than 100 = active

Substance | Relative binding activity, DR1 (HLA-DR1 (DRB1*0101)) | Relative binding activity, DR3 (HLA-DR3 (DRB1*0301)) | Relative binding activity, DR4 (HLA-DR4 (DRB1*0401)) | Relative binding activity, DR7 (HLA-DR7 (DRB1*0701)) | Relative binding activity, DR11 (HLA-DR11 (DRB1*1101)) | Relative binding activity, DR15 (HLA-DR15 (DRB1*1501)) | Relative binding activity, DRB3 (HLA-DRB3 (DRB3*0101)) | Relative binding activity, DRB4 (HLA-DRB4 (DRB4*0101)) | Relative binding activity, DP401 (HLA-DP401 (DPB1*0401)) | Relative binding activity, DP402 (HLA-DP402 (DPB1*0402)) | Total (number of the 12 predominant HLA II molecules bound) [1] | Relative binding activity, DR13 (HLA-DR13 (DRB1*1301)) | Relative binding activity, DRB5 (HLA-DRB5 (DRB5*0101))
G T K V R Q G T L K K A R Y N (GTKVRQGTLKKARYN) [MDK 99-113] | 3 000 | >419 | >1 812 | >2 479 | >1 086 | >529 | >485 | >28 868 | >879 | >976 | 1 | – | –
G T L K K A R Y N A Q C Q E T (GTLKKARYNAQCQET) [MDK 105-119] | – | >419 | – | >2 479 | 1 008 | 225 | >485 | >28 868 | >879 | >976 | 1 | >2 537 | >2 100
K D K V K K G G P G S E C A E (KDKVKKGGPGSECAE) [MDK 25-39] | 1 251 | >419 | >1 812 | >2 479 | >1 086 | >529 | >485 | >28 868 | >879 | >976 | 0 | >2 537 | >2 100
K E F G A D C K Y K F E N W G (KEFGADCKYKFENWG) [MDK 78-92] | 299 | – | – | >2 479 | – | 216 | – | >28 868 | – | – | – | >2 537 | –
Q T Q R I R C R V P C N W K K (QTQRIRCRVPCNWKK) [MDK 64-78] | 246 | >419 | – | 2 066 | – | >529 | >485 | 1 155 | >879 | >976 | 1 | >2 537 | –
T S A V A K K K D K V K K G G (TSAVAKKKDKVKKGG) [MDK 18-32] | >5 291 | >419 | >1 812 | >2 479 | >1 086 | >529 | >485 | >28 868 | >879 | >976 | 0 | 132 | >2 100
